Test results published in PMC8303269, “ERα36–GPER1 Collaboration Inhibits TLR4/NFκB-Induced Pro-Inflammatory Activity in Breast Cancer Cells” (International Journal of Molecular Sciences, 2021).

Molecular target: T1, G-protein Estrogen Receptor 1 (GPER1) (human (endogenous in SKBR3), UniProt Q99527 1-375)
T1 construct: Endogenous protein precipitated and detected with mouse monoclonal anti-human GPER1 (clone 2F2); also called GPR30; source: endogenous, SKBR3 cells (fixed cells; whole-cell extract)
T1 sequence (Q99527 whole entry): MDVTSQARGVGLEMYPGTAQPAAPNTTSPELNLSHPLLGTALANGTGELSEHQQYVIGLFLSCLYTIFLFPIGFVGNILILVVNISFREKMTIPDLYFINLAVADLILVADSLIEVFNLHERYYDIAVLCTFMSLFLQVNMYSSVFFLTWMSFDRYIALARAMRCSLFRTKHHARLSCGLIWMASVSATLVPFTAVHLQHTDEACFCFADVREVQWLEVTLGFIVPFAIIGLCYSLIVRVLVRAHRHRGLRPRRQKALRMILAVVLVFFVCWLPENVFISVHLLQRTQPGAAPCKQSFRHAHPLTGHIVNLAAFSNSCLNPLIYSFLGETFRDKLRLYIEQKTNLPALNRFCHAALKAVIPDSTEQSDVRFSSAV
Assay: proximity ligation; Duolink In Situ, bright field; fixed SKBR3 cells, endogenous proteins; rabbit polyclonal anti-ERα36 and mouse monoclonal anti-GPER1; cells treated with E2 (10^-7 M) and/or LPS
Conditions: partners not purified

B1: estrogen receptor alpha 36 (ERα36) (receptor, human (endogenous in SKBR3), UniProt P03372-4 1-310, looked up)
chain: MAMESAKETRYCAVCNDYASGYHYGVWSCEGCKAFFKRSIQGHNDYMCPATNQCTIDKNRRKSCQACRLRKCYEVGMMKGGIRKDRRGGRMLKHKRQRDDGEGRGEVGSAGDMRAANLWPSPLMIKRSKKNSLALSLTADQMVSALLDAEPPILYSEYDPTRPFSEASMMGLLTNLADRELVHMINWAKRVPGFVDLTLHDQVHLLECAWLEILMIGLVWRSMEHPGKLLFAPNLLLDRNQGKCVEGMVEIFDMLLATSSRFRMMNLQGEEFVCLKSIILLNSGISHVEAKKRILNLHPKIFGNKWFPRV
notes: called estrogen receptor isoform 4 in the NCBI database; Endogenous protein detected with a rabbit polyclonal anti-ERα36 antibody; also called ERa36; estrogen receptor isoform 4; source: endogenous, SKBR3 cells (fixed cells; whole-cell extract)
  fold increase of interacting pairs (PLA dots) with LPS: ~5 fold
